Here are results for 1 substance from publication PMC7997955.

In the test the target is Full-length human AURKA^T288V (human) (UniProt O14965). The test can be described thus: fluorescence polarisation; competitive displacement: 5 nM FITC-Tpx2^1–43 and 35 nM AURKA kept constant, unlabeled competitor (Bora or Tpx2) varied; 25 mM HEPES pH 7.5, 50 mM NaCl, 10 mM MgCl2, 0.1 mg/mL BSA, 0.01% Brij, 3 mM ADP, 2 mM DTT. (In general: In fluorescence polarisation assays a small probe gives low polarisation when free and higher when bound to something large.)
Full-length human AURKA^T288V (human), sequence (O14965 other isoform, or with tags, fused parts or gaps T288V | T288V): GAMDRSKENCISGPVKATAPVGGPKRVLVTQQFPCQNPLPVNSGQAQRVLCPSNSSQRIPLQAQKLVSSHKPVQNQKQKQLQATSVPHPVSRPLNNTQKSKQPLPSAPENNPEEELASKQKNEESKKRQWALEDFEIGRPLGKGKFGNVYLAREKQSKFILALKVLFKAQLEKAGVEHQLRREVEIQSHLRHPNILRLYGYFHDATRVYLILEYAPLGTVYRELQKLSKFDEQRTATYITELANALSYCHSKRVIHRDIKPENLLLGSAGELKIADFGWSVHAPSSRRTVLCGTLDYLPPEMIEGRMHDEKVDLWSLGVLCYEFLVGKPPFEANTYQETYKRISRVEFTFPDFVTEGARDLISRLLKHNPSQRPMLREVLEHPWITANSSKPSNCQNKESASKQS

“pBora^18–120 (from UniProt Q6PGQ7 18-120) (domain or fragment)” registered a fold less efficient displacement of FITC-Tpx2^1–43 than pBora^1–224 of 20 fold.
